Our source for the binding signal values is paper PMC10681739, “High-throughput data and modeling reveal insights into the mechanisms of cooperative DNA-binding by transcription factor proteins”.

First the molecules themselves.
B1: Table S4 A row 1964 (dsDNA)
DNA 1: CCACGGTGGTGACTTCCTTTTCCGCTCCCCTACACA
DNA 2: TGTGTAGGGGAGCGGAAAAGGAAGTCACCACCGTGG
B2: Table S4 A row 2304 (dsDNA)
DNA 1: GCGGCCTGACGGGAAACGTAGTTTCCGGGGCCAAGA
DNA 2: TCTTGGCCCCGGAAACTACGTTTCCCGTCAGGCCGC
B3: Table S4 A row 189 (dsDNA)
DNA 1: CACTTTCTGAAGAGGAAACAGGAAGTGTGTTTCATA
DNA 2: TATGAAACACACTTCCTGTTTCCTCTTCAGAAAGTG
B4: Table S4 A row 1258 (dsDNA)
DNA 1: CCATCAGCAAACATCCCACCGGATGTTTTCTTAAGC
DNA 2: GCTTAAGAAAACATCCGGTGGGATGTTTGCTGATGG
B5: Table S4 A row 2457 (dsDNA)
DNA 1: TGCAGCTAACTACTTCCGCTTCCGCTTGCGTCCCCT
DNA 2: AGGGGACGCAAGCGGAAGCGGAAGTAGTTAGCTGCA
B6: Table S4 A row 1887 (dsDNA)
DNA 1: CACTCAGGAAGTAGGTCAGGAGGAGATATCCTGTGT
DNA 2: ACACAGGATATCTCCTCCTGACCTACTTCCTGAGTG
B7: Table S4 A row 2376 (dsDNA)
DNA 1: CCCAGAGCCAATTTTCCACTTCCGCTTCCGGCGCTG
DNA 2: CAGCGCCGGAAGCGGAAGTGGAAAATTGGCTCTGGG
B8: Table S4 A row 1614 (dsDNA)
DNA 1: GTTCTTCGACCCGGATGCGCTTCCTAATAAAACGGC
DNA 2: GCCGTTTTATTAGGAAGCGCATCCGGGTCGAAGAAC
B9: Table S4 A row 763 (dsDNA)
DNA 1: GGGCAACTTCCGCGACCTCTACCACATCCTTGAGAA
DNA 2: TTCTCAAGGATGTGGTAGAGGTCGCGGAAGTTGCCC
B10: Table S4 A row 57 (dsDNA)
DNA 1: ACTGGAGAACAGGAAATAGCAGGAAACGTCACCTAC
DNA 2: GTAGGTGACGTTTCCTGCTATTTCCTGTTCTCCAGT
B11: Table S4 A row 954 (dsDNA)
DNA 1: GGTATACAGGAAACCCAGAGAGACAGGAAATGTCTC
DNA 2: GAGACATTTCCTGTCTCTCTGGGTTTCCTGTATACC
B12: Table S4 A row 1450 (dsDNA)
DNA 1: CTCCCACTTCCTTCCTGTGCGGGGAAGAAAACTGCC
DNA 2: GGCAGTTTTCTTCCCCGCACAGGAAGGAAGTGGGAG
B13: Table S4 A row 126 (dsDNA)
DNA 1: CACTGCACACTTCCTAGCAGGCTTCCTGTGTAGCTG
DNA 2: CAGCTACACAGGAAGCCTGCTAGGAAGTGTGCAGTG
B14: Table S4 A row 2250 (dsDNA)
DNA 1: CTGACAGACCCGGAAATAAGAGGAAACCACACACTT
DNA 2: AAGTGTGTGGTTTCCTCTTATTTCCGGGTCTGTCAG
B15: Table S4 A row 314 (dsDNA)
DNA 1: TTGGGAGGCACAGGAAGACCGGATGTGGTTTAAGAA
DNA 2: TTCTTAAACCACATCCGGTCTTCCTGTGCCTCCCAA
B16: Table S4 A row 1913 (dsDNA)
DNA 1: AAATAACAGAAAGGAAATACATCCTGCCAGTTAACA
DNA 2: TGTTAACTGGCAGGATGTATTTCCTTTCTGTTATTT
B17: Table S4 A row 2310 (dsDNA)
DNA 1: CATACGGCGCCACCGGAAGTTCCGGCAAGTGGGCCC
DNA 2: GGGCCCACTTGCCGGAACTTCCGGTGGCGCCGTATG
B18: Table S4 A row 2212 (dsDNA)
DNA 1: CTGGGCCAGGCGGAAGCTCTGCTTCCGCATGCTGGG
DNA 2: CCCAGCATGCGGAAGCAGAGCTTCCGCCTGGCCCAG
B19: Table S4 A row 557 (dsDNA)
DNA 1: TTGACATCCTGCTCTCCTGTGACTTTGCTTCCTGTT
DNA 2: AACAGGAAGCAAAGTCACAGGAGAGCAGGATGTCAA
B20: Table S4 A row 634 (dsDNA)
DNA 1: AGACAGACACTGCTTCCTGCTTCCTAATGGCCGATC
DNA 2: GATCGGCCATTAGGAAGCAGGAAGCAGTGTCTGTCT
B21: Table S4 A row 2128 (dsDNA)
DNA 1: CCGGCCCGCAGCCGGAACCGGAAATGCCCTTAGGGA
DNA 2: TCCCTAAGGGCATTTCCGGTTCCGGCTGCGGGCCGG
B22: Table S4 A row 2364 (dsDNA)
DNA 1: GTGGGGCTTCCTGCCGCAGAGCCGCCTTCCGCCCTC
DNA 2: GAGGGCGGAAGGCGGCTCTGCGGCAGGAAGCCCCAC
B23: Table S4 A row 2476 (dsDNA)
DNA 1: TGTGCCGTAGCATTTCCGGCGGAAGTTGCTGGGCGC
DNA 2: GCGCCCAGCAACTTCCGCCGGAAATGCTACGGCACA
B24: Table S4 A row 842 (dsDNA)
DNA 1: GGGTGGCCCAGGCTTCCGCTTCCTGCCCACATACCC
DNA 2: GGGTATGTGGGCAGGAAGCGGAAGCCTGGGCCACCC
B25: Table S4 A row 809 (dsDNA)
DNA 1: GCTTGGGTGTTTCCTGTGCTGCTTCCTCTCCAACCT
DNA 2: AGGTTGGAGAGGAAGCAGCACAGGAAACACCCAAGC
B26: Table S4 A row 916 (dsDNA)
DNA 1: ACTGCAGATCCCCTTCCTGTTTCCTTTGCTCTCCTG
DNA 2: CAGGAGAGCAAAGGAAACAGGAAGGGGATCTGCAGT
B27: Table S4 A row 1340 (dsDNA)
DNA 1: TTGAGGCCCAGACCGGAACTTCCTTTCGGCCTCAGT
DNA 2: ACTGAGGCCGAAAGGAAGTTCCGGTCTGGGCCTCAA
B28: Table S4 A row 215 (dsDNA)
DNA 1: GGGCCCCAGCTTCCTCTCTGCCTTCCGCCGCCCGCT
DNA 2: AGCGGGCGGCGGAAGGCAGAGAGGAAGCTGGGGCCC
B29: Table S4 A row 1898 (dsDNA)
DNA 1: CCACCGGAAGACCTCAGTCATGTGGGTTTTCCGGTT
DNA 2: AACCGGAAAACCCACATGACTGAGGTCTTCCGGTGG
B30: Table S4 A row 255 (dsDNA)
DNA 1: CTGGAGGCAGGCTTCCTGTGCTTCCTGTAGGTGACA
DNA 2: TGTCACCTACAGGAAGCACAGGAAGCCTGCCTCCAG
B31: Table S4 A row 1550 (dsDNA)
DNA 1: AAGTTGGGCCTGACTTCCTTCCTGTGGGGTTGCAGC
DNA 2: GCTGCAACCCCACAGGAAGGAAGTCAGGCCCAACTT
B32: Table S4 A row 1203 (dsDNA)
DNA 1: GGAGCGGAAGCCCTTTACACTACGGTGTTTCCGGCT
DNA 2: AGCCGGAAACACCGTAGTGTAAAGGGCTTCCGCTCC
B33: Table S4 A row 822 (dsDNA)
DNA 1: AGCAGCTCAACAGGAAATACATCCTTTTCTGGTTGA
DNA 2: TCAACCAGAAAAGGATGTATTTCCTGTTGAGCTGCT
B34: Table S4 A row 1991 (dsDNA)
DNA 1: GCGCGCACCCTCCTTCCGGCATCCGTAGAACCCCCG
DNA 2: CGGGGGTTCTACGGATGCCGGAAGGAGGGTGCGCGC
B35: Table S4 A row 1689 (dsDNA)
DNA 1: TGCCCGGATGTTGAGGTCTGGTTGGCATTTCCTGTG
DNA 2: CACAGGAAATGCCAACCAGACCTCAACATCCGGGCA
B36: Table S4 A row 2352 (dsDNA)
DNA 1: CGCCGCTGACACCGGAACCGGAAACTTCATCAGGAG
DNA 2: CTCCTGATGAAGTTTCCGGTTCCGGTGTCAGCGGCG
B37: Table S4 A row 323 (dsDNA)
DNA 1: TCCATGACCCCATTTCCGCTTCCTACAGGTGAGTGT
DNA 2: ACACTCACCTGTAGGAAGCGGAAATGGGGTCATGGA
B38: Table S4 A row 1500 (dsDNA)
DNA 1: CTCGTCGCCAGGGGAAGTGCTTCCTGCTGACAGGTC
DNA 2: GACCTGTCAGCAGGAAGCACTTCCCCTGGCGACGAG
B39: Table S4 A row 376 (dsDNA)
DNA 1: CGTGACACTTCTTTTCCTGTTTCCTGGGTCTCACCA
DNA 2: TGGTGAGACCCAGGAAACAGGAAAAGAAGTGTCACG

The target of the series is T1, ETS1 x2 (Homo sapiens, UniProt P14921).
T1 sequence: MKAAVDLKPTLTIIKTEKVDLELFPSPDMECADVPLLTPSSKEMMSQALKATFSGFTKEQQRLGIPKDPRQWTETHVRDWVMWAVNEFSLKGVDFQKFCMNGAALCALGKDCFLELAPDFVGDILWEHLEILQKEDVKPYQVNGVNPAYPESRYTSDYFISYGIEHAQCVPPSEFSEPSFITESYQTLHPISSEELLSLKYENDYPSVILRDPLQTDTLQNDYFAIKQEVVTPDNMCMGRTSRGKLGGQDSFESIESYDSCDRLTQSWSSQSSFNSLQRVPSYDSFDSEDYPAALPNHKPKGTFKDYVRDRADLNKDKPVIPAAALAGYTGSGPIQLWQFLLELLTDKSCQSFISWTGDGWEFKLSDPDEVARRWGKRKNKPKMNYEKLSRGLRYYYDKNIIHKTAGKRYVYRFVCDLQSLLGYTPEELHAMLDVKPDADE
As to the kind of experiment: gcPBM; 10 nM ETS1. The settings on record: tags: N-terminal GST (pDEST15), kept (PMC6008103); chain copies: 2; label: surface-attached array probe.
As to B1, the binding signal was 7690 PBM fluorescence, median of replicate spots.
As for B2, the figure is 4630 PBM fluorescence, median of replicate spots; as for B3, 8380 PBM fluorescence, median of replicate spots; as for B4, 5080 PBM fluorescence, median of replicate spots.
As for B5, the figure is 24300 PBM fluorescence, median of replicate spots; as for B6, 6420 PBM fluorescence, median of replicate spots; as for B7, 15700 PBM fluorescence, median of replicate spots.
Take B8: the binding signal is 5240 PBM fluorescence, median of replicate spots.
Take B9: the binding signal is 19000 PBM fluorescence, median of replicate spots.
Take B10: the binding signal is 13600 PBM fluorescence, median of replicate spots.
The value for B11 was 5630 PBM fluorescence, median of replicate spots; that for B12 was 25000 PBM fluorescence, median of replicate spots; that for B13 was 4970 PBM fluorescence, median of replicate spots.
As for B14, the figure is 8250 PBM fluorescence, median of replicate spots; as for B15, 12700 PBM fluorescence, median of replicate spots.
As for B16, the figure is 8690 PBM fluorescence, median of replicate spots; as for B17, 18500 PBM fluorescence, median of replicate spots; as for B18, 4240 PBM fluorescence, median of replicate spots.
Regarding B19, the binding signal was 20500 PBM fluorescence, median of replicate spots.
As for B20, the binding signal was 10500 PBM fluorescence, median of replicate spots.
As for B21, the figure is 17000 PBM fluorescence, median of replicate spots; as for B22, 17300 PBM fluorescence, median of replicate spots; as for B23, 26900 PBM fluorescence, median of replicate spots.
The value for B24 was 10900 PBM fluorescence, median of replicate spots.
The value for B25 was 23300 PBM fluorescence, median of replicate spots; that for B26 was 6260 PBM fluorescence, median of replicate spots.
Take B27: the binding signal is 5800 PBM fluorescence, median of replicate spots.
The value for B28 was 6960 PBM fluorescence, median of replicate spots.
Turning to B29, the binding signal was 7470 PBM fluorescence, median of replicate spots.
In the case of B30, the binding signal is 9790 PBM fluorescence, median of replicate spots.
The value for B31 was 5110 PBM fluorescence, median of replicate spots.
The value for B32 was 5440 PBM fluorescence, median of replicate spots; that for B33 was 11900 PBM fluorescence, median of replicate spots.
As for B34, the figure is 15100 PBM fluorescence, median of replicate spots; as for B35, 9040 PBM fluorescence, median of replicate spots; as for B36, 6600 PBM fluorescence, median of replicate spots.
For B37, the binding signal is 21500 PBM fluorescence, median of replicate spots.
As for B38, the figure is 4140 PBM fluorescence, median of replicate spots; as for B39, 4760 PBM fluorescence, median of replicate spots.
